Measurements as given in patent publication US20090041794A1 (IMMATICS BIOTECHNOLOGIES, published 2009).

Target: T1, HLA-A*0201 molecule on TAP-deficient T2 cells (human)
T1 construct: also called HLA-A2
Experiment: in vitro reconstitution (T2 whole cell-binding) assay on TAP-deficient T2 cells, compared with the Flu reference peptide

Row | Binder | binding result
1 | ALCNTDSPL (Synthetic peptide bought from Biosynthan, more than 90% purity; also called RPS-002) [iLR2 146-154 (ALCNTDSPL)] | binds
2 | LLAARAIVAI (Synthetic peptide bought from Biosynthan, more than 90% purity; also called RPS-001) [iLR1 59-68 (LLAARAIVAI)] | binds
